B1: His10-BTLA^ICD BTLA^FFYF, pre-phosphorylated (domain or fragment)
chain: DTAGREINLVDAHLKSEQTEASTRQNSQVLLSETGIFDNDPDLCFRMQEGSEVFSNPCLEENKPGIVYASLNHSVIGPNSRLARNVKEAPTEFASICVRS
modifications: pre-phosphorylated with Fyn; lone tyrosine (Y257) in the ITIM

Legend:
SNAP-SHP2-cSH2 = assay: SPR
[1] = molecular target: B1; assay: SPR

Kd (SNAP-SHP2-cSH2) [nM]	Kd [1] [nM]	Binder
1100	–	His10-BTLA^ICD BTLA^FFFY, pre-phosphorylated (domain or fragment, pre-phosphorylated with Fyn; lone tyrosine (Y282) in the ITSM) DTAGREINLVDAHLKSEQTEASTRQNSQVLLSETGIFDNDPDLCFRMQEGSEVFSNPCLEENKPGIVFASLNHSVIGPNSRLARNVKEAPTEYASICVRS
1100	–	B1
–	1800	SNAP-SHP1-cSH2 (domain or fragment) WYHGHMSGGQAETLLQAKGEPWTFLVRESLSQPGDFVLSVLSDQPKAGPGSPLRVTHIKVMCEGGRYTVGGLETFDSLTDLVEHFKKTGIEEASGAFVYLRQPY

From PMC8631942 (2021)
